Experimental data from patent US20200385482A1.

Experiments:
[1] = target: human C-type lectin domain family 2 member (hCLEC2D) expressed on transfected 300.19 cells (human) (UniProt Q9UHP7); test: FACS, hCLEC2D 300.19 cells, assay 1, Ab 1 ug/ml
[2] = target: human C-type lectin domain family 2 member (hCLEC2D) expressed on transfected 300.19 cells (human) (UniProt Q9UHP7); test: FACS, hCLEC2D 300.19 cells, assay 2, Ab 1 ug/ml
[3] = target: human C-type lectin domain family 2 member (hCLEC2D) expressed on transfected 300.19 cells (human) (UniProt Q9UHP7); test: FACS, hCLEC2D 300.19 cells, assay 1, Ab 0.1 ug/ml
[4] = target: human C-type lectin domain family 2 member (hCLEC2D) expressed on transfected 300.19 cells (human) (UniProt Q9UHP7); test: FACS, hCLEC2D 300.19 cells, assay 2, Ab 0.1 ug/ml
[5] = target: human C-type lectin domain family 2 member (hCLEC2D) expressed on transfected 300.19 cells (human) (UniProt Q9UHP7); test: FACS, hCLEC2D 300.19 cells, assay 1, Ab 0.01 ug/ml
[6] = target: human C-type lectin domain family 2 member (hCLEC2D) expressed on transfected 300.19 cells (human) (UniProt Q9UHP7); test: FACS, hCLEC2D 300.19 cells, assay 2, Ab 0.01 ug/ml
[7] = target: human C-type lectin domain family 2 member (hCLEC2D) expressed on transfected 300.19 cells (human) (UniProt Q9UHP7); test: FACS, hCLEC2D 300.19 cells, assay 1, Ab approx 10 ug/ml
[8] = target: human C-type lectin domain family 2 member (hCLEC2D) expressed on transfected 300.19 cells (human) (UniProt Q9UHP7); test: FACS, hCLEC2D 300.19 cells, assay 2, Ab approx 10 ug/ml

Sequence of human C-type lectin domain family 2 member (hCLEC2D) expressed on transfected 300.19 cells (human) (Q9UHP7 whole entry, the tested form may be a part): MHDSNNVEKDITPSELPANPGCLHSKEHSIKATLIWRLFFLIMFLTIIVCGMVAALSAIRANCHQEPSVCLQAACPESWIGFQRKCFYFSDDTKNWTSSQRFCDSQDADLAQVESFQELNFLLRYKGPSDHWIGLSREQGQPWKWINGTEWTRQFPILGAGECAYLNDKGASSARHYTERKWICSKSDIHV

Cells PE-A Mean [1] [MFI]	Cells PE-A Mean [2] [MFI]	Cells PE-A Mean [3] [MFI]	Cells PE-A Mean [4] [MFI]	Cells PE-A Mean [5] [MFI]	Cells PE-A Mean [6] [MFI]	Cells PE-A Mean [7] [MFI]	Cells PE-A Mean [8] [MFI]	Binder
898	898	294	294	154	154	2370	2370	Ab-16 (antibody, V domains shown) VH: EVQLVQSGGGVVQPGRSLRLSCAASGFTFSSYALSWVRQAPGKGLEWVSAISGGGGSTYYADSVKGRFTISRDNSKNTLYLQMNSLRAEDTAVYYCAKDVFPETFSMNYGMDVWGQGTLVTVSS VL: SSELTQDPAVSVALGQTVRITCQGDSLRSYYASWYQQKPGQAPVLVIYGKNNRPSGIPDRFSGSSSGNTASLTITGAQAEDEADYYCNSRDSSGNHYVFGTGTKVTVL
1100	1100	298	298	166	166	3140	3140	Ab-52 (antibody, V domains shown) VH: QVQLQESGGGVVQPGRSLRLSCSASGFTFSRHGMHWVRQAPGKGLEWVAVISHDGSVKYYADSMKGRFSISRDNSNNTLYLQMDSLRADDTAVYYCARGLSYQVSGWFDPWGQGTLVTVSS VL: NFMLTQPHSVSESPGKTVTISCTRSSGSIASNYVQWYQQRPGSAPTTVIYEDNQRPSGVPDRFSGSIDSSSNSASLTISGLKTEDEADYYCQSYDSTTPSVFGGGTKLTVL
870	870	360	360	153	153	2950	2950	Ab-31 (antibody, V domains shown) VH: QVQLVQSGAEVKKPGATVKVSCKVFGDTFRGLYIHWVRQAPGQGLEWMGGIIPIFGTANYAQKFQGRVTITTDESTSTAYMELSSLRSEDTAVYYCASGLRWGIWGWFDPWGQGTLVTVSS VL: EIVLTQSPATLSLSPGERATLSCRASQSIGNSLAWYQQKPGQAPRLLMYGASSRATGIPDRFSGSGAGTDFTLTISSLEPEDFATYYCQQHTIPTFSFGPGTKVEVK
